Our source for the Km and kcat values is article PMC8583942, “An Engineered Thermostable Laccase with Great Ability to Decolorize and Detoxify Malachite Green” (International Journal of Molecular Sciences, 2021).

A word on the Km: it is the substrate concentration at which the rate is half of its maximum. For orientation: kcat means the number of substrate molecules converted per active site and unit of time at saturation.

Substrate in the data set: CCn1c(=NN=c2sc3cc(S(=O)(=O)O)ccc3n2CC)sc2cc(S(=O)(=O)O)ccc21
Description: purified protein. The data set is classed as biochemical, Geothermobacter hydrogeniphilus. The settings on record: 1 mM CuSO4, 20 mM acetate pH 4.0, 60 °C.

B1: Ghlac WT (Geothermobacter hydrogeniphilus) (protein)
chain: MKMARNGKISYLEPEWITGSLRAGFTTRNGGISRAPYNSLNLGLNTEDPRPNVEGNRSTLVRAFGLEVHQLLTVRQVHGNNILVVDEPNPDLSHFQQVECDAIISNQPGMMIGVLVADCYPVLLAAPAQGVVAAVHVGWRGAVAQIIQRTVDALQEQFGVCPEELLAAVGPGIGAHAYEVDRPVRDQFRKAGLPWAGVAEESRLGHWKLDLRETCRRQLLTAGVVRTHIDLAEECTCCHRELLFSHRRDNGRTGRQLGFILLT
notes: codon-optimized in pET-28a(+) NcoI/XhoI; E. coli BL21(DE3)
On to B1, for which the Km amounted to 1300 µM and the kcat came to 2.095 s⁻¹.
